For three molecules, Kd results are on record in article doi:10.1101/2022.04.06.487297 (bioRxiv, 2022).

In this assay the target is cortactin SH3 domain (UniProt Q60598 488-546). Kind of assay: NMR titration.
cortactin SH3 domain, sequence (Q60598 488-546): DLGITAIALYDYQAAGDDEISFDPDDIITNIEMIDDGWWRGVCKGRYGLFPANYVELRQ
By Kd is commonly meant the constant that tells how readily two partners part at equilibrium. TAFQEPPPKPSRPKYRPPP [Pyk2-PRR2 peptide] came in with a Kd of 40 ± 5 µM.

With TAFQEPAPKASQAQYRPPP [Pyk2 super-mutant peptide], the Kd is over 1000 µM.

In the case of EFTGPPQKPPRLGAQS [Pyk2-PRR3 peptide], the Kd stood at 650 ± 10 µM.
